Data published in doi:10.1101/560391 (bioRxiv, 2019).

Tests used:
[1] = molecular target: dCENP-A^C chimera, GFP-LacI fusion (Drosophila) (UniProt Q9V6Q2); experiment: LacI/LacO tethering and co-recruitment in cells
[2] = molecular target: (dCENP-A/dH4) dimer (Drosophila), Q9V6Q2; experiment: SEC-MALS; conditions: remark: other sources report otherwise
SEC-MALS = molecular target: the molecule itself; experiment: SEC-MALS

CAL1-V5 (from UniProt Q9VEN2 1-979) (natural protein)
CAL1 recruitment relative to WT dCENP-A [1]: 60%

B1: recombinant CAL1(1-160), Q9VEN2 1-160 (domain or fragment)
chain: MANAVVDEETLEAMVYERSKAWSSKMADFASLEDGMEIDVAEFDNLFHGEDEDPDLDDVAKEAVEDNVPDEAKLEMGHINATSVTELTLILCANEDNEAKAEIEEILNQTVPVVEEHKRKWREAGLDRILDTFDEKQIEHHVGRWMRRHNSVYLEASPPK
stoichiometry N [2]: 1

B2: His-dCENP-C(1264-1411) (domain or fragment)
chain: GPVVFSTPLRDEQEEASTKLMQWLRGVGDAPPSASMSDENASVSSANELIFCQVDGIDYAFYNTKEKAMLGYMRFKPYQKRSMKQAKVHPLKLLVQFGEFNVETLAVGEEKEVHSVLRVGDMIEIDRGTRYSIQNAIDKVSVLMCIRS
stoichiometry N (SEC-MALS): 2
